Experiment [1] has as its target T1, HPV38 E7 protein (beta-papillomavirus), recombinant (His-TEV-E7 fusion from E. coli) (Human Papilloma Virus type 38 (HPV38), UniProt Q80908 1-100).
T1 construct: mature; also called HPVE7 38; VE7_HPV38; not shown: N-terminal 6x Histidine tag and TEV cleavage site of the vector
T1 sequence: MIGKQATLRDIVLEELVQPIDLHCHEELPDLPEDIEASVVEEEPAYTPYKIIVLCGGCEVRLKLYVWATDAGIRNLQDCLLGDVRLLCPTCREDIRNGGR
Kind of experiment: ELISA and dot-blot. For orientation: ELISA stands for enzyme-linked immunosorbent assay.

Experiment [2] has as its target T2, HPV5 E7 protein (beta-papillomavirus), recombinant (His-TEV-E7 fusion from E. coli) (Human Papilloma Virus type 5 (HPV5), UniProt P06932 1-103).
T2 construct: mature; also called VE7_HPV05; not shown: N-terminal 6x Histidine tag and TEV cleavage site of the vector
T2 sequence: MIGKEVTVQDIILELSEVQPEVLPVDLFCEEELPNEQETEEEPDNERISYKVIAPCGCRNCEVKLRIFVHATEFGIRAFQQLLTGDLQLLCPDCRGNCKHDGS
In words: ELISA and dot-blot.

Experiment [3] deals with T3, HPV6 E7 protein (low risk type), recombinant (His-TEV-E7 fusion from E. coli) (Human Papilloma Virus type 6 (HPV6), UniProt Q84292 1-98).
T3 construct: mature; the only HPV6 entry in the list of constructs is VE7_HPV6A; also called VE7_HPV6A; not shown: N-terminal 6x Histidine tag and TEV cleavage site of the vector
T3 sequence: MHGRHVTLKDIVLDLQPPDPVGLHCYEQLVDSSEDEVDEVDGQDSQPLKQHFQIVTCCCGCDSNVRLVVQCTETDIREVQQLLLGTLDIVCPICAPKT
Kind of experiment: ELISA and dot-blot.

Experiment [4] concerns the target T4, HPV11 E7 protein (low risk type), recombinant (His-TEV-E7 fusion from E. coli) (Human Papilloma Virus type 11 (HPV11), UniProt P04020 1-98).
T4 construct: mature; also called VE7_HPV11; not shown: N-terminal 6x Histidine tag and TEV cleavage site of the vector
T4 sequence: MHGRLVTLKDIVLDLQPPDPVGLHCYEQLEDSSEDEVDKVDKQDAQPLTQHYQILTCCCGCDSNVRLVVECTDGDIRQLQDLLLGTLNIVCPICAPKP
In words: ELISA and dot-blot.

Experiment [5] has as its target T5, HPV35 E7 protein, recombinant (His-TEV-E7 fusion from E. coli) (Human Papilloma Virus type 35 (HPV35), UniProt P27230 1-99, CKII phosphorylation of the consensus site serines in the antigen preparation of Example 2).
T5 construct: mature; also called VE7_HPV35; not shown: N-terminal 6x Histidine tag and TEV cleavage site of the vector
T5 sequence: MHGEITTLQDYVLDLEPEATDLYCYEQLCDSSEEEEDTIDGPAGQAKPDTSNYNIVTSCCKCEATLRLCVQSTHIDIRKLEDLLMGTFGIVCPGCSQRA
In words: ELISA and dot-blot, semiquantitative crossreactivity.

The target of experiment [6] is T6, HPV45 E7 protein, recombinant (His-TEV-E7 fusion from E. coli) (Human Papilloma Virus type 45 (HPV45), UniProt P21736 1-106, CKII phosphorylation of the consensus site serines in the antigen preparation of Example 2; biotin on primary amines in the SPR assay).
T6 construct: mature; also called VE7_HPV45; not shown: N-terminal 6x Histidine tag and TEV cleavage site of the vector
T6 sequence: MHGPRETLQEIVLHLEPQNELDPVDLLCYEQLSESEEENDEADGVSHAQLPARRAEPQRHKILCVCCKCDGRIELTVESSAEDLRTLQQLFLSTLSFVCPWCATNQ
The experiment is described as above.

For experiment [7], the target named is T7, HPV51 E7 protein, recombinant (His-TEV-E7 fusion from E. coli) (Human Papilloma Virus type 51 (HPV51), UniProt P26558 1-101, CKII phosphorylation of the consensus site serines in the antigen preparation of Example 2).
T7 construct: mature; also called VE7_HPV51; not shown: N-terminal 6x Histidine tag and TEV cleavage site of the vector
T7 sequence: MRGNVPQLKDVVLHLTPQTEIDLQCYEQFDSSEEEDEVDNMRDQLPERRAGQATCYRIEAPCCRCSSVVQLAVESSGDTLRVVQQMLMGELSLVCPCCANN
The experiment is described as above.

Experiment [8] has as its target T8, HPV56 E7 protein, recombinant (His-TEV-E7 fusion from E. coli) (Human Papilloma Virus type 56 (HPV56), UniProt P36833 1-105, CKII phosphorylation of the consensus site serines in the antigen preparation of Example 2).
T8 construct: mature; also called VE7_HPV56; not shown: N-terminal 6x Histidine tag and TEV cleavage site of the vector
T8 sequence: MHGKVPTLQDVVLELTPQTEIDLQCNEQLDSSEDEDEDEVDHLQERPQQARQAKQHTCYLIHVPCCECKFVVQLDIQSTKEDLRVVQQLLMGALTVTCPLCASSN
Described as above.

Experiment [9] concerns the target T9, HPV18 E7 protein, recombinant (His-TEV-E7 fusion from E. coli) (Human Papilloma Virus type 18 (HPV18), UniProt P06788 1-105, CKII phosphorylation of the consensus site serines in the antigen preparation of Example 2; biotin on primary amines in the SPR assay).
T9 construct: mature; also called VE7_HPV18; not shown: N-terminal 6x Histidine tag and TEV cleavage site of the vector
T9 sequence: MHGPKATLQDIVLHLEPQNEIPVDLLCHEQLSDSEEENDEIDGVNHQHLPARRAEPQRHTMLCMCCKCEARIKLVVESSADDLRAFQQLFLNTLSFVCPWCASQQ
The experiment is described as above.

For experiment [10], the target named is T10, HPV33 E7 protein, recombinant (His-TEV-E7 fusion from E. coli) (Human Papilloma Virus type 33 (HPV33), UniProt P06429 1-97, CKII phosphorylation of the consensus site serines in the antigen preparation of Example 2; biotin on primary amines in the SPR assay).
T10 construct: mature; also called VE7_HPV33; not shown: N-terminal 6x Histidine tag and TEV cleavage site of the vector
T10 sequence: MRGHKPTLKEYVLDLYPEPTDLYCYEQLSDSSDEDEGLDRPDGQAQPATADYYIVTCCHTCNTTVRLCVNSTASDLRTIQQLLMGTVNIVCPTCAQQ
Kind of experiment: ELISA and dot-blot, semiquantitative crossreactivity (++ strong positive).

The target of experiment [11] is T11, HPV52 E7 protein, recombinant (His-TEV-E7 fusion from E. coli) (Human Papilloma Virus type 52 (HPV52), UniProt P36831 1-99, CKII phosphorylation of the consensus site serines in the antigen preparation of Example 2).
T11 construct: mature; also called VE7_HPV52; not shown: N-terminal 6x Histidine tag and TEV cleavage site of the vector
T11 sequence: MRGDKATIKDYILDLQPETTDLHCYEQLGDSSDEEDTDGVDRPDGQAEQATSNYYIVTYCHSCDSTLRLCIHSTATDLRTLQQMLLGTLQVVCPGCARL
Described as above.

Experiment [12] addresses T12, HPV58 E7 protein, recombinant (His-TEV-E7 fusion from E. coli) (Human Papilloma Virus type 58 (HPV58), UniProt P26557 1-98, CKII phosphorylation of the consensus site serines in the antigen preparation of Example 2).
T12 construct: mature; also called VE7_HPV58; not shown: N-terminal 6x Histidine tag and TEV cleavage site of the vector
T12 sequence: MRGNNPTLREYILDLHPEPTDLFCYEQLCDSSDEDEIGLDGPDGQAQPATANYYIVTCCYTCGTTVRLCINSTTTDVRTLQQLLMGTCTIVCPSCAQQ
Described as above.

The target of experiment [13] is T13, HPV31 E7 protein, recombinant (His-TEV-E7 fusion from E. coli) (Human Papilloma Virus type 31 (HPV31), UniProt P17387 1-98, CKII phosphorylation of the consensus site serines in the antigen preparation of Example 2).
T13 construct: mature; also called VE7_HPV31; not shown: N-terminal 6x Histidine tag and TEV cleavage site of the vector
T13 sequence: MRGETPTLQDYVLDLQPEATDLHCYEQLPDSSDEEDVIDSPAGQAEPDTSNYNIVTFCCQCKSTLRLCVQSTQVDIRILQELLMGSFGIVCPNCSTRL
The description is as above.

The target of experiment [14] is T6, HPV45 E7 protein, recombinant …. In words: ELISA and dot-blot, semiquantitative crossreactivity; antigens denatured for this antibody.
In experiment [15] the target is T7, HPV51 E7 protein, recombinant …. The description is as above.
In experiment [16] the target is T8, HPV56 E7 protein, recombinant …. Described as above.
Experiment [17] has as its target T9, HPV18 E7 protein, recombinant …. Described as above.
Experiment [18] has as its target T5, HPV35 E7 protein, recombinant …. Kind of experiment: ELISA and dot-blot, semiquantitative crossreactivity (++ strong positive); antigens denatured for this antibody.
For experiment [19], the target named is T11, HPV52 E7 protein, recombinant …. The description is as above.
In experiment [20] the target is T12, HPV58 E7 protein, recombinant …. The description is as above.

B1: ACAB167 (antibody, V domains shown)
VH: EVQLEESGGGLVQPKGSLKLSCTASGFPFNTYAMNWVRQAPGKGLEWVARIRTKSNNYATYYADSVKDRFTISRDDSQNMLYLQMNNLKTEDTAMYYCVRLYGYYFDYWGQGTTLTVSS
VL: DIVMTQSPEIMSASPGEKVTMTCSASSSVSFMFWYQQKSGTSPKIWIYDTSKLASGVPARFSGSGSGTSYSLTVSSMEAEDAATYYCQQWNSNPPTFGVGTKLELKR
notes: the printed entries run on into the first residues of the constant domains; also called HPV16E7 IgG2b antibody ACAB167
Regarding B1, the binding result in experiment [1], in experiment [2], in experiment [3], in [4], in experiment [5] and in experiment [6] was “no binding” each time. Besides, the binding result in experiment [7] is “no binding”; in experiment [8], “no binding”; in experiment [9] it was “no binding”; in experiment [10] it was “binds”; in experiment [11] it was “binds”; in experiment [12] it was “binds”. Moreover, the binding result in experiment [13] was “binds”.

B2: ACAB337 (antibody, IgG1, V domains shown)
VH: DVQLQESGPGLVKPSQSLSLTCTVTGHSITSDYAWNWIRQFPGNKLEWVAYISYSGGTGYNPSLKSRISITRDTSKPNQFFLQLNSVTTEDTATYYCACGDYYYGPRDYWGQGTSVTVSS
VL: DILLTQSPAILSVSPGERVSFSCRASQSIGTSIHWYQQRTNGSPRLLIKYASESISGIPSRFSGSGSGTDFTLSINSVESEDIADYYCQQSNYWPFTFGSGTKLEIKR
notes: also called HPV33E7 IgG1 antibody ACAB337
With B2, the binding result in experiment [1], in [2], in experiment [3], in experiment [4], in [14] and in experiment [15] was “no binding” each time. Further, the binding result in experiment [16] is recorded as “no binding”; in experiment [17], “no binding”; in [18], “binds”; in experiment [19], “binds”; in experiment [20], “binds”.

(Values after US20150023979A1 (VALDOSPAN, published 2015).)
